# PMC2746283, “BtubA-BtubB Heterodimer Is an Essential Intermediate in Protofilament Assembly” (PLoS ONE, 2009)
# T1: BtubA-E258K (P. dejongeii, UniProt Q8GCC5 1-473, E258K)
# T1 construct: BtubA of Prosthecobacter dejongeii (GenBank AY186779) with the point mutation E258K; also called within-dimer mutant of BtubA; source: E. coli, purified as described previously [3], with an added Sephacryl HR-100 column step; not shown: His tag, N-terminal, kept
# T1 sequence: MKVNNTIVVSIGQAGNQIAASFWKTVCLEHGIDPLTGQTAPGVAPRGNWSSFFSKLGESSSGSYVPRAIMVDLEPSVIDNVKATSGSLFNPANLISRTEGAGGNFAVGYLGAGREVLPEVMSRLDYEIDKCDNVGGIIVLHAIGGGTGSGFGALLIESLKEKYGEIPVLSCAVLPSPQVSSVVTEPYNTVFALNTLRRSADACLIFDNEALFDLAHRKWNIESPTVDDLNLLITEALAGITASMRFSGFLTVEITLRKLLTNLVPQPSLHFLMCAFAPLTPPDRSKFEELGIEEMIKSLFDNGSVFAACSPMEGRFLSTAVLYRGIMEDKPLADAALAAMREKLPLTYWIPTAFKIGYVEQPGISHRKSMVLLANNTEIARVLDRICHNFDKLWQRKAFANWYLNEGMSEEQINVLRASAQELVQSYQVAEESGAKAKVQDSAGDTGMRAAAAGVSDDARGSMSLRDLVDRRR
# B1: BtubB-N100E (natural protein)
# chain: VREILSIHVGQCGNQIADSFWRLALREHGLTEAGTLKEGSNAAANSNMEVFFHKVRDGKYVPRAVLVDLEPGVIARIEGGDMSQLFDESSIVRKIPGAAENWARGYNVEGEKVIDQIMNVIDSAVEKTKGLQGFLMTHSIGGGSGSGLGSLILERLRQAYPKKRIFTFSVVPSPLISDSAVEPYNAILTLQRILDNADGAVLLDNEALFRIAKAKLNRSPNYMDLNNIIALIVSSVTASLRFPGKLNTDLSEFVTNLVPFPGNHFLTASFAPMRGAGQEGQVRTNFPDLARETFAQDNFTAAIDWQQGVYLAASALFRGDVKAKDVDENMATIRKSLNYASYMPASGGLKLGYAETAPEGFASSGLALVNHTGIAAVFERLIAQFDIMFDNHAYTHWYENAGVSRDMMAKARNQIATLAQSYRDAS
# notes: BtubB of Prosthecobacter (species printed only for BtubA: P. dejongeii) with the point mutation N100E; also called within-dimer mutant of BtubB; source: E. coli, purified as described previously [3], with an added Sephacryl HR-100 column step; not shown: His tag, N-terminal, kept
# Target: T1, BtubA-E258K
# Assay: AUC; sedimentation equilibrium of BtubA + BtubB mixtures, 20°C, 10,000-14,000 rpm, HMK buffer (50 mM Hepes, 5 mM MgAc, 350 mM KAc, 1 mM EGTA, pH 7.7), no GTP; molar ratios 1:4 to 4:1, each protein 8 to 32 µM; global fit to a monomer-dimer model (HeteroAnalysis)
# Conditions: both partners purified
binder,measurement,value
B1,Kd,61 µM
